Here are results for two molecules from PMC5369529, “Substrate selectivity of an isolated enoyl reductase catalytic domain from an iterative highly reducing fungal polyketide synthase reveals key components of programming” (Chemical Science, 2016).

The target of data set [1] is T1, isolated enoyl reductase (ER) domain of squalestatin tetraketide synthase (SQTKS) (Phoma sp. C2932, UniProt Q86ZD9).
T1 construct: gene pks1; isolated ER domain only, his6-tagged, from synthetic codon-optimised phpks1, expressed in E. coli; dimer; exact borders in ESI (model begins at G1886)
T1 sequence (Q86ZD9 1887-2207 limits assumed): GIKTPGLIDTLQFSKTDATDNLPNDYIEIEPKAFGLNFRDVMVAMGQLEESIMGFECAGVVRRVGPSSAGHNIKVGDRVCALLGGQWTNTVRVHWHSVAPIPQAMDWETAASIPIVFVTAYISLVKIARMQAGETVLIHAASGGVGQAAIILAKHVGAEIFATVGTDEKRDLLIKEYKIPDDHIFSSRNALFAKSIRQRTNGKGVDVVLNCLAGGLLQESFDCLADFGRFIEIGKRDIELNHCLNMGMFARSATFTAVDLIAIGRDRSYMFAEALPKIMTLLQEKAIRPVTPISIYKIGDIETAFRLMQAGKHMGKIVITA
Briefly: inhibition of turnover of tigloyl pantetheine 5P. The data set is classed as biochemical. The settings on record: substrate 5P, NADPH; inhibitor, not reduced.

Substrate in data set [2]: C/C=C(/C)C(=O)SCCNC(=O)CCNC(=O)[C@H](O)C(C)(C)CO
Briefly: purified protein, by the assay type. More on the design: continuous spectrophotometric assay, NADPH consumption at 340 nm, initial rates fitted to Michaelis-Menten. The note with it: 30.0 °C.

Substrate in data set [3]: C/C=C(\C)C(=O)SCCNC(=O)CCNC(=O)[C@H](O)C(C)(C)CO
Briefly: purified protein, by the assay type. The arrangement: continuous spectrophotometric assay, NADPH consumption at 340 nm, initial rates fitted to Michaelis-Menten. The settings on record: 30.0 °C.

Substrate in data set [4]: C/C=C(\CC)C(=O)SCCNC(=O)CCNC(=O)[C@H](O)C(C)(C)CO
Nature of the data set: purified protein, by the assay type. The arrangement: continuous spectrophotometric assay, NADPH consumption at 340 nm, initial rates fitted to Michaelis-Menten. The settings on record: 30.0 °C.

Substrate in data set [5]: CC(C)CC/C=C/C(=O)SCCNC(=O)CCNC(=O)[C@H](O)C(C)(C)CO
Nature of the data set: purified protein, by the assay type. The settings on record: 30.0 °C. The arrangement: continuous spectrophotometric assay, NADPH consumption at 340 nm, initial rates fitted to Michaelis-Menten.

Substrate in data set [6]: CC(C)CCC/C=C/C(=O)SCCNC(=O)CCNC(=O)[C@H](O)C(C)(C)CO
Nature of the data set: purified protein, by the assay type. The arrangement: continuous spectrophotometric assay, NADPH consumption at 340 nm, initial rates fitted to Michaelis-Menten. The note with it: 30.0 °C.

Substrate in data set [7]: CCC(C)/C=C/C(=O)SCCNC(=O)CCNC(=O)[C@H](O)C(C)(C)CO
Briefly: purified protein, by the assay type. The arrangement: continuous spectrophotometric assay, NADPH consumption at 340 nm, initial rates fitted to Michaelis-Menten. The settings on record: 30.0 °C.

Substrate in data set [8]: CCC(C)CC(C)/C=C/C(=O)SCCNC(=O)CCNC(=O)[C@H](O)C(C)(C)CO
Briefly: purified protein, by the assay type. The arrangement: continuous spectrophotometric assay, NADPH consumption at 340 nm, initial rates fitted to Michaelis-Menten. The note with it: 30.0 °C.

Substrate in data set [9]: CCC/C=C(\C)C(=O)SCCNC(=O)CCNC(=O)[C@H](O)C(C)(C)CO
Briefly: purified protein, by the assay type. More on the design: continuous spectrophotometric assay, NADPH consumption at 340 nm, initial rates fitted to Michaelis-Menten. The note with it: 30.0 °C.

Substrate in data set [10]: CCC/C=C(\CC)C(=O)SCCNC(=O)CCNC(=O)[C@H](O)C(C)(C)CO
Briefly: purified protein, by the assay type. The note with it: 30.0 °C. More on the design: continuous spectrophotometric assay, NADPH consumption at 340 nm, initial rates fitted to Michaelis-Menten.

Substrate in data set [11]: CCC/C=C/C(=O)SCCNC(=O)CCNC(=O)[C@H](O)C(C)(C)CO
Nature of the data set: purified protein, by the assay type. More on the design: continuous spectrophotometric assay, NADPH consumption at 340 nm, initial rates fitted to Michaelis-Menten. The settings on record: 30.0 °C.

Substrate in data set [12]: CCCC/C=C/C(=O)SCCNC(=O)CCNC(=O)[C@H](O)C(C)(C)CO
Nature of the data set: purified protein, by the assay type. More on the design: continuous spectrophotometric assay, NADPH consumption at 340 nm, initial rates fitted to Michaelis-Menten. The settings on record: 30.0 °C.

Substrate in data set [13]: CCCCC/C=C/C(=O)SCCNC(=O)CCNC(=O)[C@H](O)C(C)(C)CO
Nature of the data set: purified protein, by the assay type. More on the design: continuous spectrophotometric assay, NADPH consumption at 340 nm, initial rates fitted to Michaelis-Menten. The settings on record: 30.0 °C.

Substrate in data set [14]: CC[C@H](C)/C=C(\C)C(=O)SCCNC(=O)CCNC(=O)[C@H](O)C(C)(C)CO
Nature of the data set: purified protein, by the assay type. The arrangement: continuous spectrophotometric assay, NADPH consumption at 340 nm, initial rates fitted to Michaelis-Menten. The settings on record: 30.0 °C.

Take `CC[C@H](C)C[C@H](C)/C=C/C(=O)SCCNC(=O)CCNC(=O)[C@H](O)C(C)(C)CO` [1P, squalestatin tetraketide pantetheine]: in data set [1], the “inhibition of turnover of tigloyl pantetheine 5P” value is on record as “it does act as an inhibitor of the ER in vitro”.

B1: isolated enoyl reductase (ER) domain of squalestatin tetraketide synthase (SQTKS) (Phoma sp. C2932) (protein)
chain: T1 sequence (Q86ZD9 1887-2207 limits assumed)
notes: isolated ER domain only, his6-tagged, from synthetic codon-optimised phpks1, expressed in E. coli; dimer; exact borders in ESI (model begins at G1886)
B1: the Km (as a rule, the substrate concentration at which the rate is half of its maximum) came to 0.44 µM in [2]; 0.69 µM in data set [3]; 0.16 µM in [4]; 0.52 µM in data set [5]; 4.70 µM in data set [6]; 0.18 µM in data set [7]. In addition, the Km in data set [8] was determined as 0.18 µM; in [9] it was 0.54 µM; in [10], 0.19 µM; in data set [11], 0.23 µM; in [12], 0.18 µM; in [13], 0.6 µM. For the same molecule, in data set [14], the Km was 0.41 µM. Further, the kcat (in general, the number of substrate molecules converted per active site and unit of time at saturation) in [2] stood at 11.4 s⁻¹; in [3] it was 8.9 s⁻¹; in data set [4] it was 2.58 s⁻¹; in [5], 5.6 s⁻¹; in data set [6], 0.85 s⁻¹; in data set [7], 5.9 s⁻¹. The kcat came to 2 s⁻¹ in [8]; 415 s⁻¹ in data set [9]; 4.71 s⁻¹ in data set [10]; 25.9 s⁻¹ in [11]; 7.11 s⁻¹ in data set [12]; 9 s⁻¹ in data set [13]. In addition, the turnover number (kcat) in data set [14] was determined as 48.8 s⁻¹. The catalytic efficiency (kcat/Km) (commonly the turnover number divided by the Michaelis constant) in [2] came to 2.59e+07 M⁻¹ s⁻¹; in data set [3] it was 1.29e+07 M⁻¹ s⁻¹; in data set [4], 1.61e+07 M⁻¹ s⁻¹; in data set [5] it was 1.08e+07 M⁻¹ s⁻¹; in data set [6] it was 200000 M⁻¹ s⁻¹; in data set [7], 3.28e+07 M⁻¹ s⁻¹. In addition, the kcat/Km in data set [8] was 1.11e+07 M⁻¹ s⁻¹; in data set [9], 7.68e+08 M⁻¹ s⁻¹; in data set [10], 2.48e+07 M⁻¹ s⁻¹; in data set [11], 1.13e+08 M⁻¹ s⁻¹; in data set [12] it was 3.95e+07 M⁻¹ s⁻¹; in data set [13] it was 1.5e+07 M⁻¹ s⁻¹. Moreover, the kcat/Km in [14] came out at 1.19e+08 M⁻¹ s⁻¹.
